Here are results for 2 molecules from US20090214574A1.

Assay [1] addresses human CD16A-Fc^48R/158F fusion protein (human) (UniProt P08637). Put plainly: affinity measurement, method not named for the TandAb.
In assay [2] the target is human CD16A-Fc^48R/158V fusion protein (human) (UniProt P08637). Described as above.
Assay [3] concerns the target human CD16A-Fc^48R/158F fusion protein (human) (UniProt P08637). Put plainly: surface plasmon resonance.
The target is the same in assay [4]. Nature of the assay: SPR, BIAcore 2000, antigen immobilized, koff/kon. On the technique in general: Surface plasmon resonance follows binding to a sensor surface in real time, without labels.
For assay [5] the target is unchanged. Put plainly: SPR, BIAcore 2000, antigen immobilized.

Chain of human CD16A-Fc^48R/158F fusion protein (human) (P08637 17-208): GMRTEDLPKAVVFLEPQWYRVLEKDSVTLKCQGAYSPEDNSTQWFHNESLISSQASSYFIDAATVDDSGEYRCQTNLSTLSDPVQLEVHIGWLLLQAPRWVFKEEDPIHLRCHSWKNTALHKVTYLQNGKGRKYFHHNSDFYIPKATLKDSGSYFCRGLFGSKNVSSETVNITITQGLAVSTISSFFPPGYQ
Chain of human CD16A-Fc^48R/158V fusion protein (human) (P08637 17-208 L66R/F176V limits assumed): as the sequence (P08637 17-208) above, with L50R, F160V counted along it

B1: CD30×CD16^LS21 TandAb/(G2S)3 (bispecific antibody, part only; not given: anti-CD30 VH and VL, His tag, not shown: small tags and cut ends)
chain, part: EEVQLVQSGAEVKKPGESLKVSCKASGYTFTSYYMHWVRQAPGQGLEWMGIINPSGGSTSYAQKFQGRVTMTRDTSTSTVYMELSSLRSEDTAVYYCARGSAYYYDFADYWGQGTLVTVSSGGSGGSGGSGGSGGSGGSGGSGGSGGSQPVLTQPSSVSVAPGQTATISCGGHNIGSKNVHWYQQRPGQSPVLVIYQDNKRPSGIPERFSGSNSGNTATLTISGTQAMDEADYYCQVWDNYSVLFGGGTKLTVL
Consider B1, for which the fold improvement in affinity over the 4-LS21 scFv in assay [1] and in assay [2] was above 10 fold each time.

B2: affinity matured anti-CD16A scFv 4-LS21 (scFv)
scFv: EVQLVQSGAEVKKPGESLKVSCKASGYTFTSYYMHWVRQAPGQGLEWMGIINPSGGSTSYAQKFQGRVTMTRDTSTSTVYMELSSLRSEDTAVYYCARGSAYYYDFADYWGQGTLVTVSSGSASAPTLKLEEGEFSEARVQPVLTQPSSVSVAPGQTATISCGGHNIGSKNVHWYQQRPGQSPVLVIYQDNKRPSGIPERFSGSNSGNTATLTISGTQAMDEADYYCQVWDNYSVLFGGGTKLTVLGQPKAAPSVTLFPPSAAAGSEQKLISEEDLNSHHHHHH
B2: the dissociation constant Kd (in general, the equilibrium constant for the complex coming apart) in assay [3] was found to be 50 nM. The Kd in assay [4] amounted to 45.3 nM. In assay [5], the koff – broadly, the rate constant with which the complex falls apart – was determined as 0.00323 s⁻¹ and the on-rate (kon) – broadly, a measure of how fast the partners come together – worked out at 71300 M⁻¹ s⁻¹.
